Residue numbers refer to the chain shown, from its start. Each block holds one binder with its values, some of them ahead of it.
Legend:
cynomolgus monkey FcRn = biological target: T1, cynomolgus monkey FcRn (cynomolgus monkey, UniProt Q8SPV9 24-297; Q8SPW0 21-119); assay: BLI (Octet RED96e), pH 6.0, FcRn captured through biotin-conjugated anti-His antibody, antibody 31.3-1000 nM
T1 construct: Bought protein; also called Cynomolgus FcRn; cynomolgus FcRn
Experimental: (§1) The affinity of the antibody to human FcRn (Acro, FCN-H52W7) and cynomolgus monkey FcRn (Acro, FCM-C52W9) was determined according to the method of Example 2 using Octet RED96e (Fortebio). Wherein, human FcRn and cynomolgus FcRn were diluted to 5 µg/mL with 1xPBS (10 mM Na2HPO4.12H2O, 2 mM KH2PO4, 137 mM NaCl, 2.7 mM KCl, pH 6.0), respectively, and biotin-conjugated THETM His-tagged mouse monoclonal antibody was diluted to 2 µg/mL; the antibody to be tested was diluted with 1x PBST (1xPBS, 0.02% Tween 20, pH6.0), and the antibody dilution concentration ranged from 1000 nM - 31.3 nM.

human FcRn = biological target: T2, human FcRn (human, UniProt P55899 24-297; P61769 21-119); assay: as above
T2 construct: Bought protein; also called hFcRn
Experimental: as §1

[1] = biological target: T3, cynomolgus monkey IgE CH3-CH4 (cynomolgus monkey); assay: BLI (Octet), method of Example 2, biotinylated cynomolgus IgE CH3-CH4
T3 construct: domain: CH3-CH4; Custom protein; also called Biotin -cyno IgE CH3-CH4; Biotin-cyno IgE
Experimental: Detection of samples on machine (Octet Data Acquisition 11.1.0.11): First, samples were added to a 96-well plate (Greiner bio-one, 655209) with 200 µL/well according to the following table. The software parameters were then set, the plate temperature was set at 30° C., and the frequency of standard kinetic signals was collected at 5.0 Hz. Next, the CH1 sensor (Fortébio, 18-0039) with 1xPBST was pre-wet for 10 minutes, and then tested on the machine. Each cycle includes the following steps: 1) immersing in buffer for 60 s; 2) detecting whether the antigen non-specifically binds to the sensor; 3) regenerating with glycine solution at 10 mM pH 1.7; 4) immersing in buffer for 60 s; 5) immobilizating the antibody on the sensor for 30 s; 6) immersing the sensor in the buffer for 180 s; 7) Association of the antigen- antibody for 180 s; 8) dissociation of the antigen-antibody for 10 min; 9) regenerating the sensor.

T1 sequence (Q8SPV9 24-297 limits assumed, chain 1 of 2): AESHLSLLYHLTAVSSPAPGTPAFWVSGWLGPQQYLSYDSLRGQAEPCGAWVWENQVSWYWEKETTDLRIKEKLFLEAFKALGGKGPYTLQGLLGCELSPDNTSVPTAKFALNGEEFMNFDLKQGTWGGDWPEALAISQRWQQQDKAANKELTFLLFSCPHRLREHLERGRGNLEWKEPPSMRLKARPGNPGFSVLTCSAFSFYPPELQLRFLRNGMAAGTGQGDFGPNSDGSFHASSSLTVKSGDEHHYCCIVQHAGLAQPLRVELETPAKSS
T1 sequence (Q8SPW0 21-119 limits assumed, chain 2 of 2): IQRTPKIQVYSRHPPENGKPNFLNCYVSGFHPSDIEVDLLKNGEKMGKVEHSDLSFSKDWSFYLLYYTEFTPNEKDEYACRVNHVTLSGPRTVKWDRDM

B1: AB1904Am10 (antibody)
VL: DIQLTQSPSSLSASVGDRVTITCRASQSVGDEADSYMNWYQQKPGKAPKLLIYAASYLQSGVPSRFSGSGSGTDFTLTISSLQPEDFATYYCQQSHEDPYTFGQGTKLEIKRTVAAPSVFIFPPSDEQLKSGTASVVCLLNNFYPREAKVQWKVDNALQSGNSQESVTEQDSKDSTYSLSSTLTLSKADYEKHKVYACEVTHQGLSSPVTKSFNRGEC
VH: not shown
notes: IgG1 format
Kd (cynomolgus monkey FcRn): 91.4 nM
koff (cynomolgus monkey FcRn): 0.106 s⁻¹
kon (cynomolgus monkey FcRn): 1.16e+06 M⁻¹ s⁻¹
Kd (human FcRn): 98.7 nM
koff (human FcRn): 0.121 s⁻¹
kon (human FcRn): 1.22e+06 M⁻¹ s⁻¹

B5: AB1904Am5 (antibody, V domains shown)
VH: EVQLVESGGGLVQPGGSLRLSCAVSGYSITSGYSWNWVRQAPGKGLEWVSVITYAGSTNYADSVKGRFTISRDDSKNTFYLQMNSLRAEDTAVYYCARGSHYFGHWHFAVWGQGTLVTVSS
VL: DIQLTQSPSSLSASVGDRVTITCRASQSVDDEYDSYMNWYQQKPGKAPKLLIYAASYLQSGVPSRFSGSGSGTDFTLTISSLQPEDFATYYCQQSHEDPYTFGQGTKLEIK
notes: IgG1 format
Kd [1]: 0.15 nM
koff [1]: 0.000267 s⁻¹
kon [1]: 1.77e+06 M⁻¹ s⁻¹

B6: AB1904Am3 (antibody, V domains shown)
VH: B5 VH with S100T
VL: B5 VL with D31A, Y33G
notes: IgG1 format
Kd [1]: 0.16 nM
koff [1]: 0.000272 s⁻¹
kon [1]: 1.7e+06 M⁻¹ s⁻¹

Next, values leading:

Kd (cynomolgus monkey FcRn): 31.5 nM
koff (cynomolgus monkey FcRn): 0.0291 s⁻¹
kon (cynomolgus monkey FcRn): 922000 M⁻¹ s⁻¹
Kd (human FcRn): 32.8 nM
koff (human FcRn): 0.0287 s⁻¹
kon (human FcRn): 875000 M⁻¹ s⁻¹
B2: AB1904Am15 (antibody)
VL: B1 VL
VH: EVQLVESGGGLVQPGGSLRLSCAVSGYSITSGYSWNWVRQAPGKGLEWVSVITYAGSTNYADSVKGRFTISRDDSKNTFYLQMNSLRAEDTAVYYCARGTHYFGHWHFAVWGQGTLVTVSSASTKGPSVFPLAPSSKSTSGGTAALGCLVKDYFPEPVTVSWNSGALTSGVHTFPAVLQSSGLYSLSSVVTVPSSSLGTQTYICNVNHKPSNTKVDKKVEPKSCDKTHTCPPCPAPELLGGPSVFLFPPKPKDTLYITREPEVTCVVVDVSHEDPEVKFNWYVDGVEVHNAKTKPREEQYNSTYRVVSVLTVLHQDWLNGKEYKCKVSNKALPAPIEKTISKAKGQPREPQVYTLPPSREEMTKNQVSLTCLVKGFYPSDIAVEWESNGQPENNYKTTPPVLDSDGSFFLYSKLTVDKSRWQQGNVFSCSVMHEALHNHYTQKSLSLSPGK
notes: Same variable regions as AB1904Am10

Kd [1]: 0.11 nM
koff [1]: 0.000222 s⁻¹
kon [1]: 2.06e+06 M⁻¹ s⁻¹
B3: AB1904Am2 (antibody, V domains shown)
VH: B5 VH with T30R
VL: B5 VL with D30A, Y33W
notes: IgG1 format

Kd [1]: 0.17 nM
koff [1]: 0.000248 s⁻¹
kon [1]: 1.5e+06 M⁻¹ s⁻¹
B4: AB1904Am11 (antibody, V domains shown)
VH: B5 VH with S100T
VL: B5 VL with D30N, Y33A
notes: IgG1 format

Kd [1]: 0.18 nM
koff [1]: 0.000308 s⁻¹
kon [1]: 1.74e+06 M⁻¹ s⁻¹
B7: AB1904Am6 (antibody, V domains shown)
VH: B5 VH with H101N
VL: B5 VL with D31S, Y33G
notes: IgG1 format
